Like-named read-outs stand apart in the source and are kept apart here.
T1: His-huTDP-43 domain I (amino acid residues 2-106) (human)
T1 construct: Amino terminal His-tagged fragment, E. coli; also called N-terminal domain
T1 chain: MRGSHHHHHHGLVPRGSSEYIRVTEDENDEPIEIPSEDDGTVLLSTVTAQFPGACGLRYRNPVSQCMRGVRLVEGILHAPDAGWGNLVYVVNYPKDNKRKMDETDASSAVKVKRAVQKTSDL

T2: His-huTDP-43 domain III (amino acid residues 183-273) (human)
T2 construct: Amino terminal His-tagged fragment, E. coli
T2 chain: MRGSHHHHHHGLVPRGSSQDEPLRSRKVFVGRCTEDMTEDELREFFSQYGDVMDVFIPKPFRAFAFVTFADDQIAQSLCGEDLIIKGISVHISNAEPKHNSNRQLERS

T3: His-huTDP-43 domain II (amino acid residues 99-204) (human)
T3 construct: Amino terminal His-tagged fragment, E. coli
T3 chain: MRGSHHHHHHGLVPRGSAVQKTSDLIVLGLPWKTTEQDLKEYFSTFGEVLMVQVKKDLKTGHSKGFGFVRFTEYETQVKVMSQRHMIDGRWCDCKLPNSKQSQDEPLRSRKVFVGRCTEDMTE


Tests used:
[1] = target: T4, recombinant full-length His-tagged human TDP-43 (2-414) (human, UniProt Q13148 2-414); experiment: direct ELISA, coated antigen
T4 construct: Amino terminal His tag, made in E. coli, purified in 8 M urea; also called full length TDP-43; full-length TDP-43
Experimental: (§1) The half maximal effective concentration (EC₅₀) of the human-derived TDP-43-specific antibodies for human TDP-43 and their target target-specificity was determined substantially as described in Example 2 above. Briefly, 96 well microplates (Corning) were coated with recombinant full length TDP-43 (Biogen Idec, USA), Escherichia coli extract and BSA (Sigma, Buchs, Switzerland), diluted to a concentration of 5 μg/ml in carbonate ELISA coating buffer (pH 9.6) overnight at 4° C. […] Non-specific binding sites were blocked for 1 hr. at room temperature with PBS containing 2% BSA (Sigma, Buchs, Switzerland). Human TDP-43-specific antibodies were diluted to the indicated concentrations and incubated 1 hr. at room temperature. Binding was determined using a donkey anti-human IgGγ-specific secondary antibody conjugated with HRP (Jackson ImmunoResearch, USA), followed by measurement of HRP activity in a standard colorimetric assay. EC₅₀ values were estimated by a non-linear regression using GraphPad Prism software (San Diego, USA).

[2] = target: T4, recombinant full-length His-tagged …; experiment: direct ELISA, coated antigen; remark: listed apart in the source
Experimental: as §1

[3] = target: T5, 6xHis-SUMO-TDP-43 (1-414), properly folded full length (human, UniProt Q13148 1-414); experiment: capture ELISA, antigen held by anti-6xHis antibody
T5 construct: Purified with KSCN and arginine, monomeric; captured on the plate by an anti-6xHis antibody; also called folded full-length TDP-43; 6xHis/SUMO tagged full length TDP-43; not shown: N-terminal 6xHis and SUMO tags from a modified pET19-b vector
T5 sequence (Q13148 whole entry): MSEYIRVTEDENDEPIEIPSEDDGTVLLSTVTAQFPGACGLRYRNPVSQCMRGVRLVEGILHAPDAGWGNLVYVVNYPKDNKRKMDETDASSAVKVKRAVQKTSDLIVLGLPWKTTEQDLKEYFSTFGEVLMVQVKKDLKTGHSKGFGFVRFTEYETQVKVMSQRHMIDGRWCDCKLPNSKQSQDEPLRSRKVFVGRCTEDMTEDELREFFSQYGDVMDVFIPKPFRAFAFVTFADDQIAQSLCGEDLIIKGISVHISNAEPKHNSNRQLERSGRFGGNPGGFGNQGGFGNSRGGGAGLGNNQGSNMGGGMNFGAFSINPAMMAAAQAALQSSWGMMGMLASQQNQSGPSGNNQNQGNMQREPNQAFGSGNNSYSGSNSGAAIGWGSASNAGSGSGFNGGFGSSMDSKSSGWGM
Experimental: (§2) Non-specific binding sites were blocked for 1 hr at RT with PBS containing 1% BSA (Sigma) and 0.05% Tween-20 (Fisher Scientific). 6×His-SUMO-TDP43 proteins at a concentration of 1.7 μM were allowed to bind to antibody-coated plates for 1 hr at RT in PBS buffer containing 1% BSA, 300 mM arginine and 0.1% PEG 5000, pH 7.5. Plates were incubated for 1 hr at RT with human antibodies of present invention, titrated in a three-fold dilution series, followed by HRP conjugated anti-human IgG Fc γ (Jackson ImmunoResearch) in PBST containing 1% BSA. HRP activity was measured in a standard colorimetric assay. EC₅₀ values were calculated using a four-parameter logistic curve fit on Softmax pro software (Molecular Devices).
(§3) We measured the binding affinity of the human-derived TDP-43 specific antibodies provided herein to properly folded 6×His/SUMO tagged TDP-43 using a capture ELISA in which native TDP-43 was immobilized without direct adsorption on the surface of the ELISA plate. This was achieved by immobilizing an anti 6×His antibody which then captured native TDP-43. […] After this immobilization step, binding by human antibodies was tested in regular buffers without interference of TDP-43 aggregation.

[4] = target: T6, 6xHis-SUMO-TDP-43 (220-414) (human, UniProt Q13148 220-414); experiment: capture ELISA, antigen held by anti-6xHis antibody
T6 construct: Captured on the plate by an anti-6xHis antibody; also called 6xHis/SUMO tagged truncated TDP-43; not shown: N-terminal 6xHis and SUMO tags from a modified pET19-b vector
T6 sequence (Q13148 220-414): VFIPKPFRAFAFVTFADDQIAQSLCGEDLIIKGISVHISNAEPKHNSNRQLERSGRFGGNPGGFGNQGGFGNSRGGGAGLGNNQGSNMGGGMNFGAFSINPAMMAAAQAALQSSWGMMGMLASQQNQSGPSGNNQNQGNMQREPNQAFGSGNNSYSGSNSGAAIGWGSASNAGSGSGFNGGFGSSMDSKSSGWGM
Experimental: as §2, §3

[5] = target: T1, His-huTDP-43 domain I (amino acid …); experiment: direct ELISA, His-tagged TDP-43 fragments coated at 6.6 ug/ml, OD 450
Experimental: (§4) Non-specific binding sites were blocked for 1 hr. at room temperature with PBST containing 2% BSA (Sigma, Buchs, Switzerland). Antibodies were incubated 1 hr. at room temperature. Binding was determined using either a donkey anti-human IgGγ-specific antibody conjugated with HRP (Jackson ImmunoResearch, USA) or a goat-anti mouse IgG (H+L)-specific secondary antibody conjugated with HRP (Jackson ImmunoResearch, USA)., followed by measurement of HRP activity in a standard colorimetric assay.

[6] = target: T2, His-huTDP-43 domain III (amino acid …); experiment: Western blot, 300 ng recombinant protein per lane, primary antibody 10 nM
Experimental: (§5) Non-specific binding sites were blocked for 1 hr. at room temperature with PBST containing 2% BSA (Sigma, Buchs, Switzerland). Blots were incubated overnight with primary antibodies (10 nM) followed by either a donkey anti-human IgGγ-specific secondary antibody conjugated with HRP (Jackson ImmunoResearch, USA) or a goat-anti mouse IgG (H+L)-specific secondary antibody conjugated with HRP (Jackson ImmunoResearch, USA). Blots were developed using ECL and ImageQuant 350 detection (GE Healthcare, Otelfingen, Switzerland).

[7] = target: T1, His-huTDP-43 domain I (amino acid …); experiment: as above
Experimental: as §5

[8] = target: T3, His-huTDP-43 domain II (amino acid …); experiment: as above
Experimental: as §5

[9] = target: T3, His-huTDP-43 domain II (amino acid …); experiment: direct ELISA, His-tagged TDP-43 fragments coated at 6.6 ug/ml, OD 450
Experimental: as §4

[10] = target: T2, His-huTDP-43 domain III (amino acid …); experiment: as above
Experimental: as §4

Row | Binder | EC50 [1] | EC50 [2] | EC50 [3] | EC50 [4] | binding result [5] | binding result [6] | binding result [7] | binding result [8] | binding result [9] | binding result [10] | binding result [2]
1 | NI-205.8A2 (antibody, human IgG1, V domains shown, Human-derived) VH: QVQLVESGGGVVQPGKSLRLSCAASGFTFRDHGMHWVRQAPGKGLEWVAVIWLDGSSRFYADSVEGRFTISRDNSKNTLYLQLTSLRAEDTAIYYCARDRVASEGTAFDVWGQGTMVTVSS VL: EIVLTQSPATLSLSPGERATLSCWASQNVNHYLVWYQQRPGQAPRLLLYDTSVRAAGIPARFIGSGSGTHFTLTISSLEPEDSAVYYCQHRSDWTFGQGTKVEIK | 7.2 nM | 7.2 nM | 34 nM | 4.6 nM | no binding | no binding (tested: 10 nM) |  |  |  |  | 
2 | NI-205.15F12 (antibody, human IgG1, V domains shown, Human-derived) VH: QVQLVQSGTAVKKPGASVKVSCKASGFSFNGYYMHWVRQAPGQGLEWMGVINPNGGSTNYAQKFKGRITMSADTPARSVSMELGSLRSDDTAMYYCARLPVNIEVLDLWGQGTLVTVSS VL: DIVMTQSPDSLAVSLGERATINCRSSQTVLFSSNDKNYLAWYQQKPGQPPKLLIYWASVRASGVPDRFSGSGSGTDFSLTINGLQAEDVAVYYCQQSSTAPLTFGGGTKVEIK | 7.2 nM | 7.2 nM | 16.3 nM | 9.7 nM |  | no binding (tested: 10 nM) | no binding (tested: 10 nM) | no binding (tested: 10 nM) |  |  | 
3 | NI-205.10D3 (antibody, human IgG1, V domains shown, Human-derived) VH: QVQLQESGPGLVKPSETLSLTCTVSGGSITDYYWSWIRQPPGKGLEWIGYIHDSGTTRYNPSLTSRLSMSLDTSTNQVSLRLTSVTAADTAVYYCAKVPDYWGQGTLVTVSS VL: not shown |  | 7.3 nM | > 90 nM | 20.5 nM |  | no binding (tested: 10 nM) | no binding (tested: 10 nM) | no binding (tested: 10 nM) |  |  | 
4 | NI-205.10H7 (antibody, human IgG1, V domains shown, Human-derived) VH: QVQLVESGGGVVQPGRSLRLSCAASGFTFSNYAMHWVRQAPGKGLEWVAVIWYDGSKKYYGDSVKGRFTISRDNPKNTLYLQMNSLRVEDTAIYYCVPDAFDMWGQGTMVTVSS VL: DIVMTQTPLSSPVTLGQPASISCRSSQSLVHTDGKTYLSWLHQRPGQPPRPLIYKMSKRFSGVPDRFSGSGAETEFTLKISRVEAEDVGIYYCLQLTQFPITFGQGTRLEIK |  | 15.3 nM | 30.9 nM | 6.45 nM |  | no binding (tested: 10 nM) | no binding (tested: 10 nM) | no binding (tested: 10 nM) |  |  | 
5 | NI-205.25F3 (antibody, human IgG1, V domains shown, Human-derived) VH: QVQLVESGGGVVQPGRSLRLSCAASGFTFSNYVMYWVRQAPGKGLEWVAFISYDGSNKYYPDSVKGRFTISRDNSMNTLYLQMDSLRAEDTAVYYCARDTYQYDSSTYYPYFYYYGMDVWGQGTTVTVSS VL: QSALTQPASVSGSPGQSITISCIGTSSDVGGYNYVSWYQQHPGKAPKLMIYEVSNRPSGVSSRFSGSKSGNTASLTISGLQSEDEADYYCSSFASSSTSVTFGGGTKLTVL | 13.3 nM | 13.3 nM | > 120 nM | > 100 nM | no binding |  |  |  | no binding | no binding | 
6 | NI-205.31D2 (antibody, human IgG1, V domains shown, Human-derived) VH: EVQLLESGGGSVQPGGSLRLSCAASGFTFSTYVMSWVRQAPGKGLEWVSAISRRGGSTYYADSVKGRFTISRDNSKNTLYLQMNSLRAEDTAVYYCAKDRWLTGRTGGVFDIWGQGTMVTVSS VL: not shown |  | > 41 nM | 41 nM | 19.4 nM |  |  |  |  |  |  | 
7 | NI-205.14H5 (antibody, human IgG1, V domains shown, Human-derived) VH: EVQLLESGGGLVQPGGSLRLSCAASGFTFRNYAMAWVRQAPGKGLEWVSAIPARGDKTYYADSVRGRFTISRDISKSALYLQMNSLRVEDTAVYYCAKAHHLYNKNFDYWGQGTLVTVSS VL: EIVLTQSPGTLSLSPGETVTLSCRASQSVSSSNLAWYQQKPGQAPRLLIYGASSRATGIPDRFSGRGSGTDFTLTISRLEPEDFAVYYCQHYGTFGQGTKVDIK |  | > 100 nM | > 100 nM |  |  |  |  |  |  |  | 
8 | NI-205.36D5 (antibody, human IgG1, V domains shown, Human-derived) VH: QVQLVESGGGVVQPGRSLRLSCAASRFTFSSYGMHWVRQAPGKGLEWVALIYYDATQKYYADSVKGRFTISRDNSKNALYLQMTSLRADDTAVYYCARDLPYHYHRSASFAPADTWGQGTLVTVSS VL: EIVLTQSPGTLSLSPGERATLSCRASQTISNNYLAWYQQKPGQAPRLLVYAASSRATGIPDRFYGSGSGADFTLTISRLEPEDFVVYYCQQYGSSPITFGQGTRLEIK |  | > 72 nM | > 72 nM | > 60 nM |  |  |  |  |  |  | 
9 | NI-205.8F8 (antibody, human IgG1, V domains shown, Human-derived) VH: EVQLLESGGGLVQPGGSLRLSCAASGYTFSYYAMSWVRQAPGKGLEWVSTIGDSGSTTHYADSVKGRFTISRDNSKSTLYLQMNSLRAEDTAVYYCAKGLGPVAAIGDYWGQGTLVTVSS VL: QSVLTQPPSASGTPGQRVTISCSGSSSNIGSNNVYWYQQLPGTAPKLLVYRNNQRPSGVPDRVSGSKSGSSASLAISGLRSEDEADYYCAAWDDSLRGYVFGTGTKVTVL |  |  | > 94 nM |  |  |  |  |  |  |  | no binding
